Experimental data from publication PMC10457321, “Architecture of the Heme-translocating CcmABCD/E complex required for Cytochrome c maturation” (Nature Communications, 2023).

Columns and labels:
[1] = biological target: the molecule itself; test: cryo-EM structure; single-particle analysis of the co-expressed, co-purified E154Q^A variant complex in GDN with 2.5 mM ATP added, closed state; Ccm(E154QAB)2CD with ATP at 3.62 A
[2] = biological target: T1, Ccm(ABCD)2 heterooctameric heme translocation complex (Escherichia coli, UniProt P33931 1-207; P0ABL8 1-220; P0ABM1 1-245; P0ABM5 1-69); test: cryo-EM structure; single-particle analysis of the co-expressed, co-purified wild-type CcmABCDE sample in GDN, nucleotide-free, inward-open state; classes Ccm(ABCD)2 at 3.47 A and Ccm(ABCD)2E at 3.81 A; 20 mM Tris/HCl pH 7.5, 150 mM NaCl; conditions: both partners purified
T1 construct: CcmA of Escherichia coli, as m1; CcmB of Escherichia coli, as m2; CcmC of Escherichia coli, as m3; CcmD of Escherichia coli, as m4; Nucleotide-free, inward-open state; C2-symmetric heterooctamer; Used as the target of CcmE; also called CcmABCD complex; source: GDN; copies: 2 + 2 + 2 + 2
T1 sequence 1: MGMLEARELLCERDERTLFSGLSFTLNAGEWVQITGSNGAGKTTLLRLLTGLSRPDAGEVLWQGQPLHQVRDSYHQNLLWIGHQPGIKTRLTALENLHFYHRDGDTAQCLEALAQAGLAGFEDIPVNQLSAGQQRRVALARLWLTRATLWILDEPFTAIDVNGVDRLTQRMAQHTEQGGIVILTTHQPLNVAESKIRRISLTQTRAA
T1 sequence 2: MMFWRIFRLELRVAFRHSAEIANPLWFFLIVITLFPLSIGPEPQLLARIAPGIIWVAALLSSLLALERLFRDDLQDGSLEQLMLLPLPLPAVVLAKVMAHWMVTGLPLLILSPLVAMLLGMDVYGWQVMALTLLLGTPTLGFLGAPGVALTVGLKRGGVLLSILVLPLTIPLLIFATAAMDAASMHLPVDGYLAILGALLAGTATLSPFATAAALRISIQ
T1 sequence 3: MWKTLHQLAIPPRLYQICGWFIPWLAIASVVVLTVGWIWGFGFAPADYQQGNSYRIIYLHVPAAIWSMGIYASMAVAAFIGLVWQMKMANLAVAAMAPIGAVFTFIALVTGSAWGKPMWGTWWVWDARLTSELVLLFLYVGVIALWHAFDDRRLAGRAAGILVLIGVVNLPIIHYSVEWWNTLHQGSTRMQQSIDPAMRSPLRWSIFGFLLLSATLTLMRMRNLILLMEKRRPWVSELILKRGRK
T1 sequence 4: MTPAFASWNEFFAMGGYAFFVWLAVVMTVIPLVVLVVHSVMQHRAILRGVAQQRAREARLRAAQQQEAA

[3] = biological target: the molecule itself; test: cryo-EM structure; single-particle analysis of the co-expressed, co-purified E154Q^A variant complex in DDM, no ATP added, closed state; Ccm(E154QAB)2CD at 3.94 A

B1: CcmA E154Q variant with N-terminal StrepTag(II) (natural protein, Escherichia coli)
chain: MGMLEARELLCERDERTLFSGLSFTLNAGEWVQITGSNGAGKTTLLRLLTGLSRPDAGEVLWQGQPLHQVRDSYHQNLLWIGHQPGIKTRLTALENLHFYHRDGDTAQCLEALAQAGLAGFEDIPVNQLSAGQQRRVALARLWLTRATLWILDQPFTAIDVNGVDRLTQRMAQHTEQGGIVILTTHQPLNVAESKIRRISLTQTRAA
notes: CcmA of Escherichia coli with the catalytic glutamate of the switch II region (Walker B motif) replaced; Same construct as m1 apart from E154Q; also called E154Q^A variant; ^E154QA; source: DDM or GDN
Q: Which “stoichiometry N” value [1] does the source give for B1 here?
A: 2

B2: CcmE, heme chaperone (natural protein, Escherichia coli)
chain: MNIRRKNRLWIACAVLAGLALTIGLVLYALRSNIDLFYTPGEILYGKRETQQMPEVGQRLRVGGMVMPGSVQRDPNSLKVTFTIYDAEGSVDVSYEGILPDLFREGQGVVVQGELEKGNHILAKEVLAKHDENYTPPEVEKAMEANHRRPASVYKDPAS
notes: CcmE of Escherichia coli, monotopic membrane protein with an N-terminal transmembrane helix (modelled N2 to S32) and a periplasmic beta-barrel domain from F37; the ccmE gene stood in the construct used to produce CcmABCD; also called chaperone CcmE; source: GDN
Q: With B2 as the binder, how does the “stoichiometry N” value [2] read?
A: 1

B3: CcmB, transmembrane subunit of the core ABC transporter CcmAB (natural protein, Escherichia coli)
chain: MMFWRIFRLELRVAFRHSAEIANPLWFFLIVITLFPLSIGPEPQLLARIAPGIIWVAALLSSLLALERLFRDDLQDGSLEQLMLLPLPLPAVVLAKVMAHWMVTGLPLLILSPLVAMLLGMDVYGWQVMALTLLLGTPTLGFLGAPGVALTVGLKRGGVLLSILVLPLTIPLLIFATAAMDAASMHLPVDGYLAILGALLAGTATLSPFATAAALRISIQ
notes: CcmB of Escherichia coli, integral membrane protein with six transmembrane helices, expressed from the ccm operon amplified from pEC86; Expressed from the cloned ccm operon; no truncation is described; source: DDM or GDN
Q: Which “stoichiometry N” value [3] does the source give for B3 here?
A: 2
